Test [1] concerns the target non-mutated human leptin (human) (UniProt P41159). In words: ELISA, plate-bound leptin receptor-Fc; sample 4, purified recombinant leptin. On the technique in general: In an ELISA, binding on a coated surface is turned into a signal by an enzyme label.
Test [2] has the same target. In words: ELISA, plate-bound leptin receptor-Fc; sample 8, blood donor serum/plasma CS-2.
Test [3] shares this target. As to the kind of experiment: ELISA, plate-bound leptin receptor-Fc; sample 9, blood donor serum/plasma DO-2226.
Test [4] has the same target. As to the kind of experiment: ELISA, plate-bound leptin receptor-Fc; sample 12, blood donor serum/plasma BB-3935.
For test [5] the target is unchanged. In words: ELISA, plate-bound leptin receptor-Fc; sample 10, blood donor serum/plasma IDB-883-.
Test [6] shares this target. As to the kind of experiment: ELISA, plate-bound leptin receptor-Fc; sample 11, blood donor serum/plasma IDB-8960.
Test [7] shares this target. As to the kind of experiment: receptor-Fc ELISA value divided by anti-leptin antibody ELISA value; WHO standard 2 ng/ml.
Test [8] shares this target. In words: receptor-Fc ELISA value divided by anti-leptin antibody ELISA value; WHO standard 6 ng/ml.
Test [9] has the same target. In words: ELISA, plate-bound leptin receptor-Fc; sample 6, WHO standard NIBSC 97/594, nominal 2 ng/ml.
For test [10] the target is unchanged. As to the kind of experiment: ELISA, plate-bound leptin receptor-Fc; sample 7, WHO standard NIBSC 97/594, nominal 6 ng/ml.
Test [11] shares this target. As to the kind of experiment: receptor-Fc ELISA value divided by anti-leptin antibody ELISA value; sample 1, HEK293 supernatant.
The target is the same in test [12]. As to the kind of experiment: receptor-Fc ELISA value divided by anti-leptin antibody ELISA value; sample 8, blood donor serum/plasma.
Test [13] shares this target. As to the kind of experiment: receptor-Fc ELISA value divided by anti-leptin antibody ELISA value; sample 9, blood donor serum/plasma.
The target is the same in test [14]. In words: receptor-Fc ELISA value divided by anti-leptin antibody ELISA value; sample 10, blood donor serum/plasma.
For test [15] the target is unchanged. As to the kind of experiment: receptor-Fc ELISA value divided by anti-leptin antibody ELISA value; sample 11, blood donor serum/plasma.
Test [16] has the same target. As to the kind of experiment: receptor-Fc ELISA value divided by anti-leptin antibody ELISA value; sample 12, blood donor serum/plasma.
The target is the same in test [17]. As to the kind of experiment: ELISA, plate-bound leptin receptor-Fc, detection with polyclonal anti-leptin; sample 1, HEK293 supernatant.

UniProt P41159, sequence (P41159 22-167, change not shown): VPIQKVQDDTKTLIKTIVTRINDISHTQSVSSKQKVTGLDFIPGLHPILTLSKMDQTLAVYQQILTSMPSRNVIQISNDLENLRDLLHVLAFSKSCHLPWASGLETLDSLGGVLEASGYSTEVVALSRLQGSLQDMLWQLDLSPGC

As to “Recombinant Human Leptin R Fc Chimera, Catalog Number 389-LR/CF, R & D Systems (amino acid sequence Thr20-Asp839 of the human leptin receptor) (from UniProt P48357 20-839) (Fc fusion)”, the measured value functional leptin (concentration read from standard curve) in test [1] worked out at 278 µg/mL; in test [2], 2.81 ng/mL; in test [3], 4.61 ng/mL; in test [4] it was 34.1 ng/mL; in test [5], 7.25 ng/mL; in test [6], 24 ng/mL. Besides, the measured value functional leptin (concentration read from standard curve) stood at 1.83 ng/mL in test [9], 6.05 ng/mL in test [10] and 490 ng/mL in test [17]. The quotient of functional leptin and total leptin in [7] was determined as 0.99; in test [8], 0.99; in [11] it was 0.85; in test [12] it was 1.14; in [13], 0.91; in [14], 0.87. Further, the quotient of functional leptin and total leptin in test [15] is 0.96; in [16] it was 0.98.
